These results are taken from patent US20240376166A1 (BOSTON MEDICAL CENTER, published 2024).

This data set deals with the molecule itself. The data set is described as follows: native gel of lysates from non-stressed cells (self-association; cells also hold endogenous NPM); FIG. 5B.

B1: flag-tagged NPM normal mimic (T86A-S88A-T95A-T234E-S242E) (other)
chain: MEDSMDMDMSPLRPQNYLFGCELKADKDYHFKVDNDENEHQLSLRTVSLGAGAKDELHIVEAEAMNYEGSPIKVTLATLKMSVQPAVALGGFEIAPPVVLRLKCGSGPVHISGQHLVAVEEDAESEDEEEEDVKLLSISGKRSAPGGGSKVPQKKVKLAADEDDDDDDEEDDDEDDDDDDFDDEEAEEKAPVKKSIRDTPAKNAQKSNQNGKDSKPSSTPRSKGQESFKKQEKEPKTPKGPESVEDIKAKMQASIEKGGSLPKVEAKFINYVKNCFRMTDQEAIQDLWQWRKSL
notes: Lentiviral expression in primary PTEC; also called normal mimic NPM; NrNPM; not shown: amino-terminal flag tag
As to B1, the binding result is listed as “binds”.
